Assay results: patent US20200148774A1

B1: 38E4v1 (antibody, V domains shown)
VH: EVQLVQSGAEVKKPGASVKVSCKASGFTFTSYYIHWVRQAPGQGLEWIGWIYPENDNTKYNEKFKDRVTITADTSTSTAYLELSSLRSEDTAVYYCARDGYSRYYFDYWGQGTLVTVSS
VL: DIVMTQSPDSLAVSLGERATINCKSSQSLLNSRTRKNYLAWYQQKPGQSPKLLIYWTSTRKSGVPDRFSGSGSGTDFTLTISSLQAEDVAVYYCKQSFILRTFGQGTKVEIK
B2: 40G5c (antibody, V domains shown)
VH: EVQLVQSGAEVKKPGASVKVSCKASGYTFTNYYIHWVRQAPGQGLEWIGWIYPGDGNTKYNEKFKGRATLTADTSTSTAYLELSSLRSEDTAVYYCARDSYSNYYFDYWGQGTLVTVSS
VL: DIVMTQSPDSLAVSLGERATINCKSSQSLLNSRTRKNYLAWYQQKPGQPPKLLIYWASTRESGVPDRFSGSGSGTDFTLTISSLQAEDVAVYYCTQSFILRTFGQGTKVEIK

Biological target: hCD3ε 1-27 Fc (human)
Assay: SPR (Biacore)

Sequence of hCD3ε 1-27 Fc (human) (chain, as listed by the source): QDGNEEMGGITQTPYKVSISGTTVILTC

| Binder | Kd [nM] |
| --- | --- |
| B1 | 1 |
| B2 | 13 |
